From the nanobody polyreactivity screen of Harvey et al. (2022)

experiment: yeast display, Sf9 membrane polyspecificity reagent, FACS + sequencing; frameworks hold sequencing errors
Method in brief: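 Synthetic nanobody libraries on Saccharomyces cerevisiae BJ5465 were galactose-induced for 36–48 hours, stained 1 hour at 4 °C with 10% biotinylated, detergent-solubilized Sf9 membrane reagent and enriched on streptavidin microbeads. FACS then separated cells into low and high (top ~1%) gates by anti-HA (expression) and streptavidin (reagent binding) fluorescence. Genes were colony-PCR amplified, MiSeq 2 × 250 sequenced and CDR-length filtered. A clone's polyreactivity label is that of its gate of origin.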

Question: Which “polyreactivity (PSR sort gate)” value does the source give for “HVQLVESGGGLVQAGGSLRLSCAASGSIFIGNAMGWYRQAPGKERELVAAISKSDGRTYYADSVKGRFTISRDNAKNTVYLQMNSLKPEDTAVYFCAADAYWEPKVGFSLFDYWGQGTQVTVSS” here?
Answer: low polyreactivity

Question: For “QVQLVESGGGLVQAGGSLRLSCAASGRIFRSNAMGWYRQAPGKERELVAAISGSGSTTNYADSVKGRFTISRDNAKNTVYLQMNSLKPEDTAVYYCATGKRGVSGRGFRYDYWGQGTQVTVSS”, which “polyreactivity (PSR sort gate)” value is on record?
Answer: high polyreactivity

Question: Which “polyreactivity (PSR sort gate)” value does the source give for “QVQLVESGGGLVQAGGSLRLSCAASGRTTLLYAMGWYRQAPGKERELVATIRYTGGSTYADSVKGHFTISRDNAKNTVYLQMNILKPEDTAVYYCNARSYQYDGGHRYWGQGTQVTVSL” here?
Answer: high polyreactivity

Question: With “QVQLVESGGGLVQAGGSLRLSFAASGSNFGPNGMGWYRQAPGKERELVARIDRIGGGTYYADSVKGRFTISRDNAKNNVYLKMNSLKPEETAVYYCAKSGSAYWHSGWSVGFDYWGQGTQVTLSS” as the sequence, how does the “polyreactivity (PSR sort gate)” value read?
Answer: low polyreactivity

Question: Which “polyreactivity (PSR sort gate)” value does the source give for “QVQLVESGGGLVQAGGSLRLSCAASGSTFYGNAMAWYRQAPGKEREFVAAISSGGRTYYADSVKGRFTISRDNAKNTVYLQMNSLKPEDTAVYYCAVRRSAFYARFGRNYWGQGTQVTVSS” here?
Answer: low polyreactivity

Question: Which “polyreactivity (PSR sort gate)” value does the source give for “QVQLVESGGGLLQAGRSLRLTCAASGRTFRAYAMGWYRQAPGKEMELVASISRRGGSTYYADSVKGRFTISRDNAKNSVYLQMNSLKPEDTAVSYCAASDKYLQYDYWGQGSQVTVSS” here?
Answer: high polyreactivity

Question: With “QVQLVESGGGLVQAGGSLRLSCAASGRTFYKNTMGWYRQAPGKERELVATIYQRGGSTYYADSVKGRFTISRDNAKNTVYLQMNSLKREDTAVYYCNARKYTQSIHYDYWGQGTQVTVSS” as the sequence, how does the “polyreactivity (PSR sort gate)” value read?
Answer: high polyreactivity

Question: With “QVQLQERGSGLVQAGGSLRLTCAESGAIFPAYLMGWYRQPPGKERELVAGISYGSITYCADSVKGRFNIIRDNAKNTVYLQMNSLKPEDTAVKYCAVWRPGGDEYYYWGQGTQVTVSS” as the sequence, how does the “polyreactivity (PSR sort gate)” value read?
Answer: low polyreactivity

Question: For “QVQLGESGGGLVQAGGSLRLSCAASGRTFSYYAKGWNRPAPGKERELVGAISSTGGSTYYADSVKGRFTISRDNAKNTVYLQMNSLKPEDTAVYYCAARWYVLYYRGGYCGQGTQVTVSS”, which “polyreactivity (PSR sort gate)” value is on record?
Answer: low polyreactivity

Question: Which “polyreactivity (PSR sort gate)” value does the source give for “QVQLVESGGGLVQAGGSLRLSCAASGRIFITNAMGWYRPAPGKERELVAVISYIGGRTYYADSVKGRFTISRDNAKNTVYLQMNSLKPEDTAVYYCAARRSRPTYFSTGVNYWGQGTQVTVSS” here?
Answer: high polyreactivity

Question: With “QVQLVESGGGLVQAGGSLRLSCAASGITFVPNAMGWYRQAPGKERELVARIDNGVSTNYADSVKGRFTISRDNAKNTVYLQMNSLKPEDTAVYYCAKDGYWGDWDQYYWGQGTQVTVSS” as the sequence, how does the “polyreactivity (PSR sort gate)” value read?
Answer: low polyreactivity

Question: For “QVQIVESGGGIVQAGGSLRLSCGASGRTFYYYAMGWYRQAPGKERELVASITWSGSSTTYADSVKGRFTISRDNSKNTFVLQLNRLKQQASAVYYCAADPYFWGYHFRRYGSWGQGTQVTVSS”, which “polyreactivity (PSR sort gate)” value is on record?
Answer: low polyreactivity

Question: With “QVHLVDSGGGLVQAGASLRLSCSASGSIFYSYAMGWYRPAPGKEWELVAAIRRGGSTNYADSVKGRFTISRDNAKNTVYLQMNSLKPEDTAVYYCAAGRFTYAAQRYEYWGQGTQVTVSS” as the sequence, how does the “polyreactivity (PSR sort gate)” value read?
Answer: high polyreactivity

Question: For “QVQLVESGGGLVQAGGSLRLSCAGSGNIFVFYVMGWYRQAAGKERELVASISSTGNTYYADSVKGRFTISRDNAKNTVYLQMNSLKPEDTAVYYGAADSHQNVSGWLRWPRMDYWGQGTQVTVSS”, which “polyreactivity (PSR sort gate)” value is on record?
Answer: low polyreactivity

Question: For “QVQLVESGGGLVQAGGSLRLSCAASGRIFTINAMGWYRQAPGKERELVATISDRGGSTYYADTVKGRFTISRDNAKNTVYLQMNSLKPEDTAVYYCAARWGRGLEFDYWGQGTQVTVSS”, which “polyreactivity (PSR sort gate)” value is on record?
Answer: high polyreactivity

Question: Which “polyreactivity (PSR sort gate)” value does the source give for “QVQLVESGGGLVQAGGSLRLSCAASGRIFPLYAMGWYRKAPGKERELVAAISYSGGSTYYADSVKGRFTISRDNAKNTVYLQMISLKPEDTSVYYCAAQTARVSYRMGYWGQGTQVTVSS” here?
Answer: high polyreactivity

Question: For “QVQLVESGGGLVQAGGSLRLSCAASGSIFKRNAMGWYRQAPVKETELVAAITRSGSSTYYADSVKGRFKISRDNAKNTVYLQFNSLKPEDTSVYYCAAQYESNGYTGYYWGQGTQVSVSS”, which “polyreactivity (PSR sort gate)” value is on record?
Answer: high polyreactivity

Question: With “QVQLVESGGGLVQAGGSLRLSCAASGLIFAKYAMGWYRQAPGKERELVAAITSSGAGTYYADSVKGRFTISRDNAKNTVYLQMNCLKPEDTAVYYCATGPDPKYDYWGQGTQVTVSS” as the sequence, how does the “polyreactivity (PSR sort gate)” value read?
Answer: high polyreactivity

Question: Which “polyreactivity (PSR sort gate)” value does the source give for “QVQLVESGGGLVQAGGSLRLSCAASGRTFRGYAMGWYRQAPGKERELGAAITSSGGRTYYADSVKGRFTISRDNAKNTVYLQMNSLKPVDTAVYYCAKDYYSPRGYDYWGQGTQVTVSS” here?
Answer: high polyreactivity

Question: Which “polyreactivity (PSR sort gate)” value does the source give for “QVQLVESGGGLVQAGGSLRLICAASGIIFAYYAMGWYRQSPGKERELVAAITWSGGRTYYADSVKGRFTISRDNAKNTVYLQMNSLKPEDTSVYYCAARFTRQMYYWGQGTQVTVSS” here?
Answer: high polyreactivity

Question: For “QVQLVESGGGLLQAGGSLRLSCAASGRIFYGYTMVRYRQAPGKERELVASITIRGSRTYYADSVKGRFTISRDNAKNTVYLQMISQKPEDTAVSYCAADFVPARTVHRYDYWGQGTQVTVSS”, which “polyreactivity (PSR sort gate)” value is on record?
Answer: low polyreactivity

Question: Which “polyreactivity (PSR sort gate)” value does the source give for “QVQLVESGGGLVQAGGSLRLSCAASGRTFPYNAMGWYRPAPGKERELVAAISGRGGSTYYADYVKGRFTISRDNAKNTVYLQMNSLKPEDTAVYYCAARLPWSYYRTQGYNYWGQGTQVTVSS” here?
Answer: high polyreactivity

Question: Which “polyreactivity (PSR sort gate)” value does the source give for “QVQLVESGGGLVQAGGSLRLSCAASGSTYRIYAMGWYRQAPGKERELVAAITRSGGSTYYADSVKGRFTISRDNAKNTVYLQMNSMKPEDTAVYYCNRRGAYPAKYDYWGQGTQVTVSS” here?
Answer: high polyreactivity

Question: With “QVQLQESGGGLVQAGGSLRMSCAASGNIFDADIMGWYRQAPGKERELVASITDGRRTNYADSVKGRYTISRDSEKNTVYLQMNSLKPEDTAVYYCAAIAYPVVPTYFDYDSDYFHWGQGTQVTVIS” as the sequence, how does the “polyreactivity (PSR sort gate)” value read?
Answer: high polyreactivity

Question: For “QVQLVESGGGLVQAGGSLRLSCAASGRTFSGYAMGWYRQAPGKERELVAAITSSGSSTYYADSVKGRFTISRDNAKNTVYLQMNSQKPEDTSVYYCAATPQAHSERYYYQRKYDYWGQGTQVTVSS”, which “polyreactivity (PSR sort gate)” value is on record?
Answer: low polyreactivity

Question: With “QVQLVESGGGLVQAGGSLRLSCAASGSTFKRNAMGWYRQAPGNERELVAAITDNTSTTFYADSVKGRFTISRDNAKNTVYLQMNSLKPEDTAVYYCAADHSGGSRYDYWGQGTQVTVSS” as the sequence, how does the “polyreactivity (PSR sort gate)” value read?
Answer: low polyreactivity

Question: Which “polyreactivity (PSR sort gate)” value does the source give for “QVQLVESGGCLVQAGGSLRLSCAASGSTFLKYTMGWYRQAPGKERELVAAITASGGRTYYADSVKGRFTISRDNAKITVYLQMNSLKPEDTAVYYCAARGFDRYYWGQGTQVTVSS” here?
Answer: high polyreactivity

Question: With “QVQLVDSGGGLVQAGGSLRLSCAASGSIFYQYAMGWYRQAPGKQRELVAAISRSGGSTYYADSVKGRFTISRDNAKNTVYLQMISLKPEDTAVYYCAARAVRAAYDYWGLGTQVTVSS” as the sequence, how does the “polyreactivity (PSR sort gate)” value read?
Answer: low polyreactivity

Question: For “QVQLVESGGGLVQAGGSLRISCAASGSTLFNYAMGWYRQAPGKERELVAAIDWGDGTTYYADSVKGRFTISRDNAKNTVYLQMNSLQPEDTAVYYCAAEEFYSPYDYWGQGTQVTVSS”, which “polyreactivity (PSR sort gate)” value is on record?
Answer: high polyreactivity

Question: For “QVQLVESGGGLVQAGGSLRISCAASGRIFSEYAMGWYRQAPGKERELVATITWTGGSTTYADSVKGRFTISRDNAKNTVYLQINSLKPEDTAVYYCAADATRLRTRYKRDYWGQGTQVTVSS”, which “polyreactivity (PSR sort gate)” value is on record?
Answer: high polyreactivity

Question: With “QVQLVESGGGLVQAGGSLRLSCAASGSTFRPYAMGWYRQAPGKERELVAAISWSGGRTYYADSVKGRFTISRDNAKNNVYLQMNSLKPEDTAVYYCNRAGRQPKNTYDYWGQGTQVTVSS” as the sequence, how does the “polyreactivity (PSR sort gate)” value read?
Answer: high polyreactivity

Question: For “QVQLVESGGGLVQAGGSHRLSCAASGFTSAVNTMGWYRQAPGKEREFVASISRNGGSTYYADSVKGRFTITRDNAKNTVYLQINSLKPEDTAVYYCNTRVPNYAFRRSRYDYWGQGTQVTVSS”, which “polyreactivity (PSR sort gate)” value is on record?
Answer: high polyreactivity

Question: For “QLQLVESGGGLVQAGGSIRLSCAASGSIFYRYAKGWNRQAPGKESELVAAISSRGGSKYYADSVKARFTISRDNAKNTVYLQMNSLKPEDTAVYYCAARSGGSGGTYGYWGQGPQVTVSS”, which “polyreactivity (PSR sort gate)” value is on record?
Answer: high polyreactivity

Question: Which “polyreactivity (PSR sort gate)” value does the source give for “QVQLVESGGGLVQAGGSLRLTCAASGFTFSQYVMGWYRQAPGKERELVAAISYRGGSTYYADSVKGRFTISRDKAKNTVYLQLNSLKPEDTAVYYCAAVAYSWHNRYDYWGQGTQVTVSS” here?
Answer: high polyreactivity

Question: Which “polyreactivity (PSR sort gate)” value does the source give for “QVQLVESGGGLVQAGGSLRLICAASGSTFWWYAMGWYRKAPGKEREFVAAIRWSSGSTYYADSVKGRFTISRDNAKNTVYLQMNSLKPEDTAVYYCATDDTSNVYVDLDYWGQGTQVTVSS” here?
Answer: high polyreactivity

Question: With “QVQLVESGGGLVQAGGSLRLSCAASGSIFVTYDMGWYRQAPGKERELVAGISGSGSTYYADSVKGRFTISRDNAKNTVYLQMNSLKPEDTAGYYCAAVWSRFLISYSTGWWFEYWGQGTQVTVSS” as the sequence, how does the “polyreactivity (PSR sort gate)” value read?
Answer: low polyreactivity

Question: For “QVQLVESGGGLVQAGGSLRLSCAASGSTFRGYTMGWYRQAPGKEREFVATISSRGGSTNYADSVKGRFTISRDNAKNTVYLQMNSMKPEDTAVYYCNVRRVWWEWPRGDSWGQGTQVTVSS”, which “polyreactivity (PSR sort gate)” value is on record?
Answer: high polyreactivity

Question: For “QVQLVESGGGLVQAGGSLRLSCAASGFTFGGYAMGWYRQAPGKEREMVAGISGSGGRTYYADSVKGRFTISRDNAKNTVYLQMNSLKPEDTAVYYCGADRASPYLEYYWGLGTQVTVSS”, which “polyreactivity (PSR sort gate)” value is on record?
Answer: low polyreactivity

Question: Which “polyreactivity (PSR sort gate)” value does the source give for “QVQLVESGGGLVQAGGSLRLSCAASGFTFVGYAMGWYRQAPGKERELVAAISSSGVSTYYADSVKGRFTISRDNAKNTVYLQMNSLKPEDTAVYYCNRVSVYRSSHLLWGGYWGQGTQVTVSS” here?
Answer: low polyreactivity

Question: With “QVQLVESGGGLVQAGGSLRLSCASSGSIFVHNDMGWYRQAPGKERELVARINTGGGTNYADSVKGRFTISRDNSKNTVYLQMNRLKPEDRAVYYCAAVLFVFYDEYGYWEYFSQYDYWGQGTKVTVSS” as the sequence, how does the “polyreactivity (PSR sort gate)” value read?
Answer: low polyreactivity

Question: For “QVQLVDSGGGVVQEGGSLRLSCAASGIISLFNVMGWYRQAPGKERELVASITGRGGSTFYADSVKGRFTISRDNAKNTVYLQMNSLQPEESGVYYCATDTGDTYPVNGLYDYWGHGTQVTVSS”, which “polyreactivity (PSR sort gate)” value is on record?
Answer: low polyreactivity

Question: With “QVQLVESGGGLVQAGGSLRLSCAASGFYNTMGWYRQAPGKERELVAAISTGGITNYADSVKGRFTISRDNSKNTFYFQMKSLIPEDTAVYYCAADGYSTVSSTYDYWGQGTQVTVSS” as the sequence, how does the “polyreactivity (PSR sort gate)” value read?
Answer: low polyreactivity

Question: With “QVQLVESGGGLVQAGGSLRLSCAASGSTFDTYAMGWYRQAPGKERELVAAINSGGGTNYADSVKGRFTISRDNAKNTVYLQMNSLKPEDTAVYYCATDSRRDAGGGDFDYWGQGTQVTVSS” as the sequence, how does the “polyreactivity (PSR sort gate)” value read?
Answer: low polyreactivity
